This note sets out measurements from patent US6339139.

Holding throughout (assay): cell-based or functional assay
Test [1] has as its target insulin growth factor I receptor (human) (UniProt P08069).
Test [2] addresses insulin growth factor II receptor (human) (UniProt P11717).
Test [3] deals with epidermal growth factor receptor (human) (UniProt P00533).

A value given as a limit tells only on which side of the number the result lay.

Sequence of UniProt P08069 (P08069 31-1367): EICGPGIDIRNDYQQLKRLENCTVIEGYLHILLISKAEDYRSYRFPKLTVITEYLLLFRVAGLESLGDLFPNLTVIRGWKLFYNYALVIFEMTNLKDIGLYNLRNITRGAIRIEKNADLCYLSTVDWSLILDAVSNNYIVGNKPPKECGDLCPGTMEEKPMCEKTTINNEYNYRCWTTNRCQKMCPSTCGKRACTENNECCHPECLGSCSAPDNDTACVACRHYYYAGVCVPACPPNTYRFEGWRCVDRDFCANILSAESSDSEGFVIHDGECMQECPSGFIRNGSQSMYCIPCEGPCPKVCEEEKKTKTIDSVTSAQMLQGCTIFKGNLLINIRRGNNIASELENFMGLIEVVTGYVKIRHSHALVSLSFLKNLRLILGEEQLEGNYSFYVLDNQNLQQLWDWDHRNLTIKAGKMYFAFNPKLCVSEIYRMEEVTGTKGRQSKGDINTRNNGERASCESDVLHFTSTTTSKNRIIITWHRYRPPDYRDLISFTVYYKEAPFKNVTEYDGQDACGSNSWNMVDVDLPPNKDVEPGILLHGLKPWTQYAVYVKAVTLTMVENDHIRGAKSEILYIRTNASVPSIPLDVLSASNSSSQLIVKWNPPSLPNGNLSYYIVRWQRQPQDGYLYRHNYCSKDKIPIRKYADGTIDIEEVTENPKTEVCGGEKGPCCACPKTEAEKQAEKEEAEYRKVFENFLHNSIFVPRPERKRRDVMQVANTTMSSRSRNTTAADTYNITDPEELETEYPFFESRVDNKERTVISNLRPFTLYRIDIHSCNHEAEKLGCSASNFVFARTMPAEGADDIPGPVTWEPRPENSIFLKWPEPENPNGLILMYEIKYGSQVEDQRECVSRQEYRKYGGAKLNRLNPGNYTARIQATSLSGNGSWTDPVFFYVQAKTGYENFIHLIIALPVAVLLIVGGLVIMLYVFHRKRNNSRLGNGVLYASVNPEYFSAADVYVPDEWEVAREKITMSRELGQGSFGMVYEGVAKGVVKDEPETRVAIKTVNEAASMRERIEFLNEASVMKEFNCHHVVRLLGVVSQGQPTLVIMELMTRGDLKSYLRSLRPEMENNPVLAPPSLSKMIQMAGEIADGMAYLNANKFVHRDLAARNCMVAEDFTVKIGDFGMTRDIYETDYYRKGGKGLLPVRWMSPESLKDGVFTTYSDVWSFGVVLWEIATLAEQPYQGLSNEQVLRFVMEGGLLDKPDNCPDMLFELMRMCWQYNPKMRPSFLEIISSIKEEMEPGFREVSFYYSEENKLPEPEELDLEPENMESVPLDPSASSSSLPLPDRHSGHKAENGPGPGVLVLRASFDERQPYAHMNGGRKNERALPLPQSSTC
Sequence of UniProt P11717 (P11717 41-2491): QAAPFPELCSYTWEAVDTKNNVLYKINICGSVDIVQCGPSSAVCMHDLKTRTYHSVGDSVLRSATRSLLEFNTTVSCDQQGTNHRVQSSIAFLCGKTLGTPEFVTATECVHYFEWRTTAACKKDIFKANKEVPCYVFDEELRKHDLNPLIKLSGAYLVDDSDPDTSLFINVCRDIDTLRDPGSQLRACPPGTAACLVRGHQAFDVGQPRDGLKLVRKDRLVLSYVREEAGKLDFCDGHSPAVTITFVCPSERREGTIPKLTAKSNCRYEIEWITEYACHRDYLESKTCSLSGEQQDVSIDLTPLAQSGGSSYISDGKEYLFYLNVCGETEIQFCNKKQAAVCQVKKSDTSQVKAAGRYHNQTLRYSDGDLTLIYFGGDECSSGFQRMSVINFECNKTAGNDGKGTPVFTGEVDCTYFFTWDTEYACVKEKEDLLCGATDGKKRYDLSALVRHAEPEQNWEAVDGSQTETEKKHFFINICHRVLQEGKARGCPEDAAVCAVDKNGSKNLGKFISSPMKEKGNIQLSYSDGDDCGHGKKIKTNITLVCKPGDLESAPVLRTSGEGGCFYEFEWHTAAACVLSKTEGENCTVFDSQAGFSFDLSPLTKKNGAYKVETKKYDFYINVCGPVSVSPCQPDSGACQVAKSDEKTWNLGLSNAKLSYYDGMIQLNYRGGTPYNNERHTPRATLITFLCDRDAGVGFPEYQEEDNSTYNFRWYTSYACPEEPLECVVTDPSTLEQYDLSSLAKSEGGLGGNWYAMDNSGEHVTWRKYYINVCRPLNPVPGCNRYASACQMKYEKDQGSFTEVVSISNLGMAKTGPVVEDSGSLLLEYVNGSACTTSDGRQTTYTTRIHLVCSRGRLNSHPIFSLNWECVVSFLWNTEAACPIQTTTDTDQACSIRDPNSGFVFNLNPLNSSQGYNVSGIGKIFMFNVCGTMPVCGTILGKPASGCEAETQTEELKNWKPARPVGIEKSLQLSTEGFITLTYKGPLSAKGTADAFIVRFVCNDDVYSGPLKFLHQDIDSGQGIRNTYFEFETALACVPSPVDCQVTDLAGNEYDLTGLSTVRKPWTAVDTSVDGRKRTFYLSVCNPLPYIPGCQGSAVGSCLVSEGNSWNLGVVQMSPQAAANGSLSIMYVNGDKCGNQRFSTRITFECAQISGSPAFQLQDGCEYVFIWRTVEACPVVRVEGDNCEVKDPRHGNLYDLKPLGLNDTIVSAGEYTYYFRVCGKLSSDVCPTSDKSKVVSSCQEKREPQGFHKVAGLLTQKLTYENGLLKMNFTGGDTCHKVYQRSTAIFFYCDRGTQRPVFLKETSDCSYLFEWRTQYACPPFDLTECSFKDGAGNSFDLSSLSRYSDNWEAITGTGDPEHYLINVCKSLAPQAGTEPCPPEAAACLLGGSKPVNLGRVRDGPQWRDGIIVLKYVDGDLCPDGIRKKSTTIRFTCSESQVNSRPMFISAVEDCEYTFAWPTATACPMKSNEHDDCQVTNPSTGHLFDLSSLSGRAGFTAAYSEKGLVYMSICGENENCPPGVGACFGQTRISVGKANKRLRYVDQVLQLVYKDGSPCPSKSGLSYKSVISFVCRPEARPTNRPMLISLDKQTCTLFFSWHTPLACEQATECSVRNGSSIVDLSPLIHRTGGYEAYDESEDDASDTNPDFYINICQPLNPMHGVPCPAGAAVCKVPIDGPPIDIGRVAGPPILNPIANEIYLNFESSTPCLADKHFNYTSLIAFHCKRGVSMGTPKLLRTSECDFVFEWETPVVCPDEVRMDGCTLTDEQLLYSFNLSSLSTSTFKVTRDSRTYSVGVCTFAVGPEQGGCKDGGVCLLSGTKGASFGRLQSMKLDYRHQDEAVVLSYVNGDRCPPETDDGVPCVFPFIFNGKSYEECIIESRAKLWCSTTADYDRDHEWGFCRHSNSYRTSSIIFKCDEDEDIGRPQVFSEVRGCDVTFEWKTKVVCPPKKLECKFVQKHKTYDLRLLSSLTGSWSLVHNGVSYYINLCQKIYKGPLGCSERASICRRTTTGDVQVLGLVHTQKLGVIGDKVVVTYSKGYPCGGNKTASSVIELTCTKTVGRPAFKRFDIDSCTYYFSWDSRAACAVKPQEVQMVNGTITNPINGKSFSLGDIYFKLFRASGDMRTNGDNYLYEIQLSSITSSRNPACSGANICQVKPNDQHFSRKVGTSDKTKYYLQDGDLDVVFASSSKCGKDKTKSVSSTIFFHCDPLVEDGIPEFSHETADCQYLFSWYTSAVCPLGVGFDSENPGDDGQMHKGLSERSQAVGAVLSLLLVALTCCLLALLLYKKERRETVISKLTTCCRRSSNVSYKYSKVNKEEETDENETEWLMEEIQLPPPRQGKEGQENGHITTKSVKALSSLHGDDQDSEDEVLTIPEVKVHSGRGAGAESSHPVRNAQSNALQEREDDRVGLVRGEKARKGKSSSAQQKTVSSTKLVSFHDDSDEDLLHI

For “E5-polylysine/HA20-polylysine/pSV β-gal DNA”, the Percentage of β-gal positive cells, SMMC-7721 in test [1] and in test [2] was 60% each time.
Regarding E5-polylysine/pSV β-gal DNA, the Percentage of β-gal positive cells, SMMC-7721 in test [1] and in test [2] was 10% in each case.
In test [3], “GE7-polylysine/HA20-polylysine/pSV-β-gal DNA” registered a Percentage of β-gal (+) cells, 3AO of more than 65%; a Percentage of β-gal (+) cells, BEL-7402 of more than 90%; a Percentage of β-gal (+) cells, Bcap-37 of more than 80%; a Percentage of β-gal (+) cells, SMMC-7721 of more than 80%. In test [3], this substance had a Percentage of β-gal (+) cells, SPC-A1 of more than 80% and a Percentage of β-gal (+) cells, U87 of more than 30%.
